Measurements published in PMC10588558, “On the regulation of human D‐aspartate oxidase” (Protein Science : A Publication of the Protein Society, 2023).
Where a chain is given by its changes, count along the chain named. Names may count otherwise. One block for each molecule: values may come before it.

Legend:
[1] = molecular target: T1, hDASPO (hDASPO_341), human D-aspartate oxidase (Homo sapiens, UniProt Q99489); assay: quenching of apoprotein tryptophan fluorescence (~[…] nm), titration; format: binding
T1 construct: gene DDO; full-length canonical isoform, 341 residues; His-tagged (pET11-His-hDASPO), E. coli BL21(DE3) LOBSTR, HiTrap chelating
T1 sequence (Q99489 1-341): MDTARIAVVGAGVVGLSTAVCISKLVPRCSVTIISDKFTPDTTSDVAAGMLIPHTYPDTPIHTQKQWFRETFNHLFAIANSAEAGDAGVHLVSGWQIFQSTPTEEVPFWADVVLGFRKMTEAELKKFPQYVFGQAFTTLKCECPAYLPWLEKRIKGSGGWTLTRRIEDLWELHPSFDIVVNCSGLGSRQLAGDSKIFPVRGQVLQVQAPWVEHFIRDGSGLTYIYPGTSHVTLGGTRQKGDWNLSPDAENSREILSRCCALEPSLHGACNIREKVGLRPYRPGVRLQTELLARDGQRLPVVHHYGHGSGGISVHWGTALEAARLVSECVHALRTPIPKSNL

[2] = molecular target: T2, hDASPO-RED (recombinant hDASPO labelled with the RED-NHS dye) (human, UniProt Q99489 1-341, RED-NHS fluorescent dye on primary amines (lysine residues), degree of labeling ~0.7); assay: MST; Monolith NT.115; 10 nM hDASPO-RED with 3 nM to 100 μM label-free pLG72 variant; details: both partners purified
T2 construct: human D-aspartate oxidase, canonical isoform 1 (hDASPO_341, 341 amino acids), UniProt Q99489; encoded by the pET11-His-hDASPO plasmid; Same protein as m1, with the dye; also called labeled hDASPO; source: E. coli BL21(DE3) LOBSTR, purified (HiTrap chelating column), labelled with the RED-NHS labeling kit second generation
T2 sequence (looked up): T1 sequence (Q99489 1-341)

- Kd [1]: 0.016 µM
Molecule: Cc1cc2nc3c(=O)[nH]c(=O)nc-3n(C[C@H](O)[C@H](O)[C@H](O)COP(=O)(O)OP(=O)(O)OC[C@H]3O[C@@H](n4cnc5c(N)ncnc54)[C@H](O)[C@@H]3O)c2cc1C [FAD]

- Kd [2]: 6.8 ± 0.6 µM
B1: pLG72 R30 variant (wild type), recombinant (natural protein, UniProt P59103 1-153, looked up)
chain: MLEKLMGADSLQLFRSRYTLGKIYFIGFQRSILLSKSENSLNSIAKETEEGRETVTRKEGWKRRHEDGYLEMAQRHLQRSLCPWVSYLPQPYAELEEVSSHVGKVFMARNYEFLAYEASKDRRQPLERMWTCNYNQQKDQSCNHKEITSTKAE
notes: primate-specific protein pLG72 (18 kDa), wild type with Arg at position 30; kept in 0.06% N-lauroyl sarcosine; also called R30 pLG72; wild-type (R30) pLG72; source: E. coli BL21-Codon plus (DE3)-RIL, recovered from insoluble inclusion bodies, purified

- Kd [2]: 3.8 ± 0.4 µM
B2: pLG72 R30K variant (Arg30Lys), recombinant (natural protein, UniProt P59103 1-153, looked up)
chain: B1 chain with R30K
notes: primate-specific protein pLG72 (18 kDa), Arg30Lys variant related to schizophrenia susceptibility; kept in 0.06% N-lauroyl sarcosine; also called R30K pLG72; source: E. coli BL21-Codon plus (DE3)-RIL, recovered from insoluble inclusion bodies, purified
